Data as given in PMC9352680, “A comprehensive thermodynamic model for RNA binding by the Saccharomyces cerevisiae Pumilio protein PUF4”.

Biological target: T1, PUF4 RNA-binding domain (Saccharomyces cerevisiae, UniProt P25339 537-888)
T1 sequence: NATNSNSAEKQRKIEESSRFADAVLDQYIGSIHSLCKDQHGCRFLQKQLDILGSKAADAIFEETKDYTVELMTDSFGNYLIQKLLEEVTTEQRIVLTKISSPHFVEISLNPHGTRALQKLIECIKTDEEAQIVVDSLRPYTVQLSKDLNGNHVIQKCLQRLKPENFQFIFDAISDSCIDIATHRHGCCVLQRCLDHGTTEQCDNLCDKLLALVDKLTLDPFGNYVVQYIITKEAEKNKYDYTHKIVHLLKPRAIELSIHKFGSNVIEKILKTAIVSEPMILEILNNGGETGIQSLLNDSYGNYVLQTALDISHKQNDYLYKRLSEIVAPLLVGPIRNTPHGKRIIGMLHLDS
Test: Mg; RNA-MaP; 20 mM Na-HEPES pH 7.4, 30 mM KOAc, 0.75 mM MgCl2, 0.1% Tween-20, 5% glycerol, 0.1 mg/mL BSA, 2 mM DTT; 25 C; 0.0125-409.6 nM protein
Settings: tags: N-His6-TEV cleaved; C-SNAP kept, Cy3B-labelled; label: tethered on chip by stalled RNA polymerase

B1: Id_i_S2_P3E.2_K3.1_C3.2_[C-2T]_[T-1C]_H3.1_A3.1_F3.1_T3.2 (ssRNA)
RNA: UUUGAUUAAUAUGAUAUCGUUCUUUCUUCUGUAUAUAUAUUCUUUCUCGAUAUCAUAUUAAUCUUU
Kd: 1.18 nM

B2: Id_ii_S2_P3E.4_K3.3_C3.2_[C-2A]_[T-1C]_H3.3_A3.1_F3.1_T3.2 (ssRNA)
RNA: UUUGAUUAAUAUGAUAUCGUUCUUUCUACACACUAUAUAUUCUUUCUCGAUAUCAUAUUAAUCUUU
Kd: 242 nM

B3: Id_ii_S2_P3E.2_K3.1_C3.2_[C-2A]_[T-1C]_H3.1_A3.1_F3.1_T3.2 (ssRNA)
RNA: UUUGAUUAAUAUGAUAUCGUUCUUUCUACUGUAUAUAUAUUCUUUCUCGAUAUCAUAUUAAUCUUU
Kd: 1.6 nM

B4: Id_ii_S2_P3E.4_K3.3_C3.2_[C-2T]_[T-1A]_H3.3_A3.1_F3.1_T3.2 (ssRNA)
RNA: UUUGAUUAAUAUGAUAUCGUUCUUUCUUAACACUAUAUAUUCUUUCUCGAUAUCAUAUUAAUCUUU
Kd: 215 nM

B5: Id_i_S2_P3E.2_K3.1_C3.2_[C-2T]_[T-1A]_H3.1_A3.1_F3.1_T3.2 (ssRNA)
RNA: UUUGAUUAAUAUGAUAUCGUUCUUUCUUAUGUAUAUAUAUUCUUUCUCGAUAUCAUAUUAAUCUUU
Kd: 4.51 nM

B6: Id_i_S2_P3E.3_K3.2_C3.2_[C-2T]_[T-1A]_H3.2_A3.1_F3.1_T3.2 (ssRNA)
RNA: UUUGAUUAAUAUGAUAUCGUUCUUUCUUAUAUAUAUAUAUUCUUUCUCGAUAUCAUAUUAAUCUUU
Kd: 560 nM

B7: Id_ii_S2_P3E.3_K3.2_C3.2_[C-2T]_[T-1C]_H3.2_A3.1_F3.1_T3.2 (ssRNA)
RNA: UUUGAUUAAUAUGAUAUCGUUCUUUCUUCUAUAUAUAUAUUCUUUCUCGAUAUCAUAUUAAUCUUU
Kd: 71.4 nM

B8: Id_ii_S2_P3E.3_K3.2_C3.2_[C-2A]_[T-1C]_H3.2_A3.1_F3.1_T3.2 (ssRNA)
RNA: UUUGAUUAAUAUGAUAUCGUUCUUUCUACUAUAUAUAUAUUCUUUCUCGAUAUCAUAUUAAUCUUU
Kd: 66.8 nM

B9: Id_ii_S2_P3E.4_K3.3_C3.2_[C-2T]_[T-1C]_H3.3_A3.1_F3.1_T3.2 (ssRNA)
RNA: UUUGAUUAAUAUGAUAUCGUUCUUUCUUCACACUAUAUAUUCUUUCUCGAUAUCAUAUUAAUCUUU
Kd: 222 nM

B10: Id_ii_S2_P3E.4_K3.3_C3.2_[C-2A]_[T-1A]_H3.3_A3.1_F3.1_T3.2 (ssRNA)
RNA: UUUGAUUAAUAUGAUAUCGUUCUUUCUAAACACUAUAUAUUCUUUCUCGAUAUCAUAUUAAUCUUU
Kd: 238 nM

B11: Ib_S1_P4E.1_K4.1_C4.1_H4.1_[T1G]_[G2T]_A4.1_F4.1_T4.1 (ssRNA)
RNA: UCUCUUGUUAUAUUAUCUCUU
Kd: 12.3 nM

B12: Ib_S1_P4E.1_K4.1_C4.1_H4.1_[T1C]_[G2T]_A4.1_F4.1_T4.1 (ssRNA)
RNA: UCUCUUCUUAUAUUAUCUCUU
Kd: 685 nM

B13: Ib_S1_P4E.1_K4.1_C4.1_H4.1_[T1C]_[G2C]_A4.1_F4.1_T4.1 (ssRNA)
RNA: UCUCUUCCUAUAUUAUCUCUU
Kd: 1290 nM

B14: Id_i_S2_P3E.5_K3.1_C3.3_[T-3G]_[C-2T]_[T-1C]_H3.1_A3.1_F3.1_T3.2 (ssRNA)
RNA: UUUGAUUAAUAUGAUAUCGUUCUUUCUGUCUGUAUAUAUAUUCUUUCUCGAUAUCAUAUUAAUCUUU
Kd: 2.83 nM

B15: Id_i_S2_P3E.6_K3.2_C3.3_[T-3C]_[C-2G]_[T-1C]_H3.2_A3.1_F3.1_T3.2 (ssRNA)
RNA: UUUGAUUAAUAUGAUAUCGUUCUUUCUCGCUAUAUAUAUAUUCUUUCUCGAUAUCAUAUUAAUCUUU
Kd: 68.2 nM

B16: Id_i_S2_P3E.5_K3.1_C3.3_[T-3C]_[C-2T]_[T-1C]_H3.1_A3.1_F3.1_T3.2 (ssRNA)
RNA: UUUGAUUAAUAUGAUAUCGUUCUUUCUCUCUGUAUAUAUAUUCUUUCUCGAUAUCAUAUUAAUCUUU
Kd: 0.917 nM

B17: Id_i_S2_P3E.7_K3.3_C3.3_[T-3C]_[C-2T]_[T-1A]_H3.3_A3.1_F3.1_T3.2 (ssRNA)
RNA: UUUGAUUAAUAUGAUAUCGUUCUUUCUCUAACACUAUAUAUUCUUUCUCGAUAUCAUAUUAAUCUUU
Kd: 214 nM

B18: Id_i_S2_P3E.7_K3.3_C3.3_[T-3A]_[C-2T]_[T-1G]_H3.3_A3.1_F3.1_T3.2 (ssRNA)
RNA: UUUGAUUAAUAUGAUAUCGUUCUUUCUAUGACACUAUAUAUUCUUUCUCGAUAUCAUAUUAAUCUUU
Kd: 597 nM

B19: Id_i_S2_P3E.6_K3.2_C3.3_[T-3A]_[C-2T]_[T-1C]_H3.2_A3.1_F3.1_T3.2 (ssRNA)
RNA: UUUGAUUAAUAUGAUAUCGUUCUUUCUAUCUAUAUAUAUAUUCUUUCUCGAUAUCAUAUUAAUCUUU
Kd: 170 nM

B20: Id_i_S2_P3E.7_K3.3_C3.3_[T-3C]_[C-2A]_[T-1A]_H3.3_A3.1_F3.1_T3.2 (ssRNA)
RNA: UUUGAUUAAUAUGAUAUCGUUCUUUCUCAAACACUAUAUAUUCUUUCUCGAUAUCAUAUUAAUCUUU
Kd: 222 nM

B21: Id_i_S2_P3E.5_K3.1_C3.3_[T-3A]_[C-2G]_[T-1C]_H3.1_A3.1_F3.1_T3.2 (ssRNA)
RNA: UUUGAUUAAUAUGAUAUCGUUCUUUCUAGCUGUAUAUAUAUUCUUUCUCGAUAUCAUAUUAAUCUUU
Kd: 2.13 nM

B22: Id_i_S2_P3E.7_K3.3_C3.3_[T-3C]_[C-2A]_[T-1C]_H3.3_A3.1_F3.1_T3.2 (ssRNA)
RNA: UUUGAUUAAUAUGAUAUCGUUCUUUCUCACACACUAUAUAUUCUUUCUCGAUAUCAUAUUAAUCUUU
Kd: 482 nM

B23: Id_i_S2_P3E.6_K3.2_C3.3_[T-3G]_[C-2G]_[T-1C]_H3.2_A3.1_F3.1_T3.2 (ssRNA)
RNA: UUUGAUUAAUAUGAUAUCGUUCUUUCUGGCUAUAUAUAUAUUCUUUCUCGAUAUCAUAUUAAUCUUU
Kd: 1300 nM

B24: Id_i_S2_P3E.5_K3.1_C3.3_[T-3C]_[C-2T]_[T-1A]_H3.1_A3.1_F3.1_T3.2 (ssRNA)
RNA: UUUGAUUAAUAUGAUAUCGUUCUUUCUCUAUGUAUAUAUAUUCUUUCUCGAUAUCAUAUUAAUCUUU
Kd: 3.83 nM

B25: Id_i_S2_P3E.6_K3.2_C3.3_[T-3A]_[C-2G]_[T-1C]_H3.2_A3.1_F3.1_T3.2 (ssRNA)
RNA: UUUGAUUAAUAUGAUAUCGUUCUUUCUAGCUAUAUAUAUAUUCUUUCUCGAUAUCAUAUUAAUCUUU
Kd: 528 nM

B26: Id_i_S2_P3E.6_K3.2_C3.3_[T-3C]_[C-2T]_[T-1C]_H3.2_A3.1_F3.1_T3.2 (ssRNA)
RNA: UUUGAUUAAUAUGAUAUCGUUCUUUCUCUCUAUAUAUAUAUUCUUUCUCGAUAUCAUAUUAAUCUUU
Kd: 35 nM

B27: Id_i_S2_P3E.5_K3.1_C3.3_[T-3A]_[C-2A]_[T-1C]_H3.1_A3.1_F3.1_T3.2 (ssRNA)
RNA: UUUGAUUAAUAUGAUAUCGUUCUUUCUAACUGUAUAUAUAUUCUUUCUCGAUAUCAUAUUAAUCUUU
Kd: 1.39 nM

B28: Id_i_S2_P3E.6_K3.2_C3.3_[T-3C]_[C-2A]_[T-1C]_H3.2_A3.1_F3.1_T3.2 (ssRNA)
RNA: UUUGAUUAAUAUGAUAUCGUUCUUUCUCACUAUAUAUAUAUUCUUUCUCGAUAUCAUAUUAAUCUUU
Kd: 68.5 nM

B29: Id_i_S2_P3E.6_K3.2_C3.3_[T-3A]_[C-2A]_[T-1C]_H3.2_A3.1_F3.1_T3.2 (ssRNA)
RNA: UUUGAUUAAUAUGAUAUCGUUCUUUCUAACUAUAUAUAUAUUCUUUCUCGAUAUCAUAUUAAUCUUU
Kd: 105 nM

B30: Id_i_S2_P3E.7_K3.3_C3.3_[T-3C]_[C-2A]_[T-1G]_H3.3_A3.1_F3.1_T3.2 (ssRNA)
RNA: UUUGAUUAAUAUGAUAUCGUUCUUUCUCAGACACUAUAUAUUCUUUCUCGAUAUCAUAUUAAUCUUU
Kd: 610 nM

B31: Id_i_S2_P3E.7_K3.3_C3.3_[T-3A]_[C-2G]_[T-1C]_H3.3_A3.1_F3.1_T3.2 (ssRNA)
RNA: UUUGAUUAAUAUGAUAUCGUUCUUUCUAGCACACUAUAUAUUCUUUCUCGAUAUCAUAUUAAUCUUU
Kd: 429 nM

B32: Id_i_S2_P3E.5_K3.1_C3.3_[T-3A]_[C-2T]_[T-1C]_H3.1_A3.1_F3.1_T3.2 (ssRNA)
RNA: UUUGAUUAAUAUGAUAUCGUUCUUUCUAUCUGUAUAUAUAUUCUUUCUCGAUAUCAUAUUAAUCUUU
Kd: 1.7 nM

B33: Id_i_S2_P3E.7_K3.3_C3.3_[T-3G]_[C-2T]_[T-1A]_H3.3_A3.1_F3.1_T3.2 (ssRNA)
RNA: UUUGAUUAAUAUGAUAUCGUUCUUUCUGUAACACUAUAUAUUCUUUCUCGAUAUCAUAUUAAUCUUU
Kd: 5.76 nM

B34: Id_i_S2_P3E.5_K3.1_C3.3_[T-3C]_[C-2T]_[T-1G]_H3.1_A3.1_F3.1_T3.2 (ssRNA)
RNA: UUUGAUUAAUAUGAUAUCGUUCUUUCUCUGUGUAUAUAUAUUCUUUCUCGAUAUCAUAUUAAUCUUU
Kd: 1.23 nM

B35: Id_i_S2_P3E.5_K3.1_C3.3_[T-3C]_[C-2A]_[T-1C]_H3.1_A3.1_F3.1_T3.2 (ssRNA)
RNA: UUUGAUUAAUAUGAUAUCGUUCUUUCUCACUGUAUAUAUAUUCUUUCUCGAUAUCAUAUUAAUCUUU
Kd: 1.09 nM
